Results from patent US20160075790A1 (Bristol-Myers Squibb, published 2016).
Residue numbers refer to the chain shown, from its start. Where “and” joins values, the source holds several entries; their conditions need not be identical. Identical values can stand only once.

B1: BMS2h-492-3 (other)
VL: DIQMTQSPSSLSATVGDRVTITCRASQAIETNLEWYQQKPGKAPKLLIYDASMLQSGVPSRFSGSGSGTDFTLTISSLQPEDFATYYCQQYDAYPPTFGQGTKVEIKR
B2: BMS2h-492-4 (other)
VL: B1 VL with T14S, T31H, S65R
B3: BMS2h-437-4 (other)
VL: DIQMTQSPSSLSASVGDRVTITCRASTPIGTMLDWYQQKPGKAPKLLIGHSSWLQSGVPSRFSGCGSGTDFTLTISSLQPEDFATYYCGQHVRPPATFGQGTKVEIKR
B4: BMS2h-494-4 (other)
VL: EIQMTQSPSSLSASVGDRVTMTCRASQSIDKDLEWYQQKPGKAPRLLIYSSSWLQRGVPSRFSGSGSGTDFTLTISSLRPEDFATYYCQQYFQYPPTLGQGTKVEIKR
B5: BMS2h-494-6 (other)
VL: B4 VL with E1D, S9P, M21I, R79Q, Y87H, L98F
B6: BMS2h-719-2 (other)
VH: EVQLLESGGGLVQPGGSLRLSCAASGFTFKRYEMMWVRQAPGKGLEWVSSISSDGSFTYYADSVKGRFTISRDNSKNTLYLQMNSLRAEDTAVYYCAEPFTEFDYWGHGTLVTVSS
B7: BMS2h-719-12 (other)
VH: B6 VH with I70V, E98D, H108Q
B8: BMS2h-719-226 (other)
VH: B6 VH with K30N, R31K, V37A, K76R
B9: BMS2h-719-202 (other)
VH: B6 VH with R31K
B10: BMS2h-719-225 (other)
VH: B6 VH with K30N, R31T, M35Q
B11: BMS2h-719-17 (other)
VH: B6 VH with M35S, E98D, F103I, H108Q, L111Q
B12: BMS2h-719-19 (other)
VH: B6 VH with L11W, E98D, H108Q
B13: BMS2h-719-13 (other)
VH: B6 VH with S75T, E98D, F103L
B14: BMS2h-116-1312 (other)
VL: DIQMTQSPSSLSASVGDRVTITCRASQPIGPDLLWYQQKPGKAPKLLIYQTSILRSGVPSRFSGSGSETDFTLTISNLQPEDLATYYCQQYWAFPVTFGKGTKVVIKR
B15: BMS2h-116-1319 (other)
VL: B14 VL with L54M, L83F, A93T, K100Q, V105E
B16: BMS2h-116-1320 (other)
VL: B14 VL with S14Y, L83F, T85K, K100Q
B17: BMS2h-116-1314 (other)
VL: B14 VL with Q37R, L83F, K100Q
B18: BMS2h-116-1313 (other)
VL: B14 VL with L83F, K100R
B19: BMS2h-572-632 (other)
VH: EVQLLESGGGLVQPGGSLRLSCAASGFTFKWQLMGWVRQAPGKGLEWVSGIEGPGDVTYYADSVKGRFTISRDNSKNTLYLQMNSLRAEDTAVYYCVKVGKDSKSDYRGQGTLVTVSS
B20: BMS2h-572-15 (other)
VH: B19 VH with Q3R, T28N, K30N, V37I, V97A, D102E, K104N
B21: BMS2h-572-635 (other)
VH: B19 VH with K30N, Q32E, V37A
B22: BMS2h-572-634 (other)
VH: B19 VH with K30N, Q32E, V37A, K104R
B23: BMS2h-572-9 (other)
VH: B19 VH with K30N, V97A, D102E, K104N
B24: BMS2h-572-11 (other)
VH: B19 VH with K30N, D102E, K104N, L113Q
B25: BMS2h-572-14 (other)
VH: B19 VH with K30N, S75T, D102E, K104N
B26: BMS2h-572-6 (other)
VH: B19 VH with K30N, D102E, K104N
B27: BMS2h-503 (other)
VL: DIQMTQSPSSLSASVGDRVTITCRASHHIQRYLSWYQQKPGKAPKLLILWGSQLQSGVPSRFSGSGSGTDFTLTISSLQPEDFATYYCGQWWAPPPTFGQGTKVEIKR
B28: BMS2h-503-1 (other)
VL: B27 VL with P96Q
B29: BMS2h-492 (other)
VL: B1 VL with T14S, T31L, A93V
B30: BMS2h-492-6 (other)
VL: B1 VL with T14S, T31S, A93V
B31: BMS2h-492-7 (other)
VL: B1 VL with T14S, T31H
B32: BMS2h-494-2 (other)
VL: B4 VL with E1D, M21I, D30E, K31E, R56S, R79Q, L98F, Q100H
B33: BMS2h-492-5 (other)
VL: B1 VL with T5N, T14S, T20S, T31H
B34: BMS2h-494 (other)
VL: B4 VL with E1D, M21I, K31E, R56S, R79Q, L98F
B35: BMS2h-494-3 (other)
VL: B4 VL with E1D, M21I, K31E, R56S, R79Q, Y87F, L98F
B36: BMS2h-572 (other)
VH: B19 VH with K30N, V97A, D102E, K104N, S105F

Target: T1, human CD40L, membrane-bound on cells (human, UniProt P29965 1-261)
T1 sequence: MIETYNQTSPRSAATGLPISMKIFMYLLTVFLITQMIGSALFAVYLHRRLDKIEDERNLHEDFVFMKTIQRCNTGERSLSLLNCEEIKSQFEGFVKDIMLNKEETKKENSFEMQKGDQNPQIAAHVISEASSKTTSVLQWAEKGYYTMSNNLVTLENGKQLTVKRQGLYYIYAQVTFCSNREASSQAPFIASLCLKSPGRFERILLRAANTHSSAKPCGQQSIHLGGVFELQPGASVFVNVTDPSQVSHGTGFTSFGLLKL
Assay: cell-based or functional assay

B1 and B2 cannot be ordered by “CHO-hCD40L-driven Human B Cell Proliferation EC50” value: > 7 µM for the first, > 7 µM for the second.

B3 and B4 cannot be ordered by “CHO-hCD40L-driven Human B Cell Proliferation EC50” value: > 7 µM for the first, > 7 µM for the second.

B5 and B6 cannot be ordered by “CHO-hCD40L-driven Human B Cell Proliferation EC50” value: > 7 µM for the first, > 7 µM for the second.

Compared with B14, B15 is higher in “CHO-hCD40L-driven Human B Cell Proliferation EC50” value: 0.53 µM for the first, > 7 µM for the second.

Going from B16 to B20, the “CHO-hCD40L-driven Human B Cell Proliferation EC50” value rises from 0.138 µM to > 7 µM.

B24 and B25 cannot be ordered by “CHO-hCD40L-driven Human B Cell Proliferation EC50” value: > 7 µM for the first, > 7 µM for the second.

B26 and B27 cannot be ordered by “CHO-hCD40L-driven Human B Cell Proliferation EC50” value: > 7 µM for the first, > 7 µM for the second.

With B28 the “CHO-hCD40L-driven Human B Cell Proliferation EC50” value was 2.3 µM.

Going from B3 to B6, the “CHO-hCD40L-driven DC Activation IL-12 EC50” value falls from 1.33 µM to 0.196 µM (6.8-fold).

Compared with B7, B8 is 3.1-fold higher in “CHO-hCD40L-driven DC Activation IL-12 EC50” value: 0.266 µM for the first, 0.812 µM for the second.

Going from B9 to B10, the “CHO-hCD40L-driven DC Activation IL-12 EC50” value rises from 0.079 µM to 0.176 µM (2.2-fold).

Compared with B11, B12 is 1.6-fold higher in “CHO-hCD40L-driven DC Activation IL-12 EC50” value: 0.113 µM for the first, 0.184 µM for the second.

Going from B13 to B14, the “CHO-hCD40L-driven DC Activation IL-12 EC50” value falls from 0.219 µM to 0.112 µM (2-fold).

Compared with B16, B17 is 21-fold higher in “CHO-hCD40L-driven DC Activation IL-12 EC50” value: 0.032 µM for the first, 0.664 µM for the second.

Going from B19 to B20, the “CHO-hCD40L-driven DC Activation IL-12 EC50” value rises from 0.241 µM to 0.876 µM (3.6-fold).

B21 and B22 are within 1.5-fold of each other in “CHO-hCD40L-driven DC Activation IL-12 EC50” value: 0.052 µM for the first, 0.077 µM for the second.

Compared with B23, B25 is lower in “CHO-hCD40L-driven DC Activation IL-12 EC50” value: > 2 µM for the first, 0.882 µM for the second.

In the case of B28, the “CHO-hCD40L-driven DC Activation IL-12 EC50” value is reported as 0.756 µM.

B11 was tested, and the “CHO-hCD40L-driven Human B Cell Proliferation EC50” value was 0.236 µM and 0.268 µM.

B14 and B16 are within 1.5-fold of each other in “T-B cell MLR EC50” value: 0.234 µM for the first, 0.191 µM for the second.

First: B17
Second: B18
The “T-B cell MLR EC50” value of the first is 6.6-fold higher: 1.69 µM for the first, 0.258 µM for the second.

For B26, the “T-B cell MLR EC50” value was > 7 µM.

Target: T2, human isoleucine zipper-CD40L (IZ-hCD40L) (human, UniProt P29965 113-261)
T2 sequence: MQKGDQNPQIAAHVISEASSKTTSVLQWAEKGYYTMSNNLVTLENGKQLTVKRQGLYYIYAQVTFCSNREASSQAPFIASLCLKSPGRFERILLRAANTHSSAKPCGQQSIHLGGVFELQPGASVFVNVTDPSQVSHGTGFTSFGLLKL
Assay: cell-based or functional assay

Compared with B29, B30 is lower in “hIZCD40L-driven Human B Cell Proliferation EC50” value: > 7 µM for the first, 6.3 µM for the second.

Compared with B31, B32 is 2.5-fold higher in “hIZCD40L-driven Human B Cell Proliferation EC50” value: 1.9 µM for the first, 4.8 µM for the second.

First: B1
Second: B33
The “hIZCD40L-driven Human B Cell Proliferation EC50” value of the first is 2.1-fold lower: 1.1 µM for the first, 2.3 µM for the second.

Compared with B34, B2 is 3.6-fold lower in “hIZCD40L-driven Human B Cell Proliferation EC50” value: 6.1 µM for the first, 1.7 µM for the second.

Going from B3 to B35, the “hIZCD40L-driven Human B Cell Proliferation EC50” value rises from 0.203 µM to > 7 µM.

Compared with B4, B5 is 3.4-fold higher in “hIZCD40L-driven Human B Cell Proliferation EC50” value: 0.59 µM for the first, 2 µM for the second.

First: B6
Second: B7
The “hIZCD40L-driven Human B Cell Proliferation EC50” value of the first is 4.4-fold lower: 0.082 µM for the first, 0.358 µM for the second.

Going from B9 to B11, the “hIZCD40L-driven Human B Cell Proliferation EC50” value rises from 0.029 µM to 0.132 µM (4.6-fold).

First: B12
Second: B13
The “hIZCD40L-driven Human B Cell Proliferation EC50” value of the first is 2.8-fold higher: 0.138 µM for the first, 0.05 µM for the second.

Going from B14 to B15, the “hIZCD40L-driven Human B Cell Proliferation EC50” value rises from 0.023 µM to 0.18 µM (7.8-fold).

Going from B16 to B17, the “hIZCD40L-driven Human B Cell Proliferation EC50” value rises from 0.02 µM to 0.041 µM (2-fold).

B19 and B20 are within 1.5-fold of each other in “hIZCD40L-driven Human B Cell Proliferation EC50” value: 0.117 µM for the first, 0.168 µM for the second.

First: B21
Second: B36
The “hIZCD40L-driven Human B Cell Proliferation EC50” value of the first is lower: 0.029 µM for the first, > 7 µM for the second.

Going from B22 to B24, the “hIZCD40L-driven Human B Cell Proliferation EC50” value rises from 0.031 µM to 0.14 µM (4.5-fold).

Compared with B25, B26 is 1.6-fold higher in “hIZCD40L-driven Human B Cell Proliferation EC50” value: 0.134 µM for the first, 0.208 µM for the second.

First: B27
Second: B28
The “hIZCD40L-driven Human B Cell Proliferation EC50” value of the first is 180-fold higher: 4.2 µM for the first, 0.024 µM for the second.

With B8 the “hIZCD40L-driven Human B Cell Proliferation EC50” value was 0.164 µM and 0.247 µM.
With B10 the “hIZCD40L-driven Human B Cell Proliferation EC50” value was 0.253 µM and 0.198 µM.
With B23 the “hIZCD40L-driven Human B Cell Proliferation EC50” value was 0.324 µM and 0.243 µM.
